# From paper PMC7181197
# What was measured:
# [1] = target: GFP-G3BP1(S149A) (UniProt Q13283 1-466, S149A); experiment: EMSA
# [2] = target: T1, GFP-G3BP1(WT) (UniProt Q13283 1-466); experiment: EMSA
# [3] = target: GFP-G3BP1(WT);mCherry-Caprin-1 (human?;human?, UniProt Q13283;Q14444 1-466;1-709, |); experiment: EMSA
# [4] = target: T1, GFP-G3BP1(WT); experiment: analytical size exclusion chromatography
# T1 sequence (Q13283 whole entry): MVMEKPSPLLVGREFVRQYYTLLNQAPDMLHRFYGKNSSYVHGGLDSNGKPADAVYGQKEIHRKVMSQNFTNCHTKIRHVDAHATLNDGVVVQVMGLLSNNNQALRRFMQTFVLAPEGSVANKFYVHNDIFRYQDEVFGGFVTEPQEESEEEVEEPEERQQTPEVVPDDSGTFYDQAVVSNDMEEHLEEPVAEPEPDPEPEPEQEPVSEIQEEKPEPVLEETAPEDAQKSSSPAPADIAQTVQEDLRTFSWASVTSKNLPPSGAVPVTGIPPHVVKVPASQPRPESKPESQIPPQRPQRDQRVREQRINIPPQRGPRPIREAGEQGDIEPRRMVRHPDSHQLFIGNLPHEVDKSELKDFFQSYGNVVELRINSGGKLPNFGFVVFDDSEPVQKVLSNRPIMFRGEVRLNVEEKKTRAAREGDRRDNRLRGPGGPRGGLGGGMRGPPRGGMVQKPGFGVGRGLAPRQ
# Sequence of GFP-G3BP1(WT);mCherry-Caprin-1 (Q13283 whole entry, chain 1 of 2): as the sequence (Q13283 whole entry) above
# Sequence of GFP-G3BP1(WT);mCherry-Caprin-1 (Q14444 whole entry, chain 2 of 2): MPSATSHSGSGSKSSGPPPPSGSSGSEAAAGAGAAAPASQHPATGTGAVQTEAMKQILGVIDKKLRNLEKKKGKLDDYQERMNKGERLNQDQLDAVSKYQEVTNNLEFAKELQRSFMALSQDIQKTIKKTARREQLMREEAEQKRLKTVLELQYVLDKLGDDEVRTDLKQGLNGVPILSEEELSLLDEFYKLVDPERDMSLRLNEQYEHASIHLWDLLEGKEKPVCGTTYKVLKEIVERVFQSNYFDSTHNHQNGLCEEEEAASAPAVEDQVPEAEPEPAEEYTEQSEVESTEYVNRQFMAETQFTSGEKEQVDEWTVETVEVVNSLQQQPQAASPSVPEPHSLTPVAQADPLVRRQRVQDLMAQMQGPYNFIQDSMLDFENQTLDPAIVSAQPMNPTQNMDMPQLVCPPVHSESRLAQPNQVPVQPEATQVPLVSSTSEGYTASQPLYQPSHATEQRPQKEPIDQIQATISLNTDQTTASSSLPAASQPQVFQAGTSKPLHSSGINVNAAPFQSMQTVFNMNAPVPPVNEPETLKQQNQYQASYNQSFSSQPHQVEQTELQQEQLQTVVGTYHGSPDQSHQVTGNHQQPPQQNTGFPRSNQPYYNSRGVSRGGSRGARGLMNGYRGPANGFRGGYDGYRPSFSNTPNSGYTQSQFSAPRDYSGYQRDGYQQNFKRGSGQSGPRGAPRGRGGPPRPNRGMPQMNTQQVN
# Sequence of GFP-G3BP1(S149A) (Q13283 whole entry S149A): as the sequence (Q13283 whole entry) above, with S149A counted along it
Binder,Kd [1] [nM],Kd [2] [nM],binding result [3],binding result [4]
"A(60)-Cy5 RNA (ssRNA, 3' pCp-Cy5 ligated (adds one 3' C)) RNA: AAAAAAAAAAAAAAAAAAAAAAAAAAAAAAAAAAAAAAAAAAAAAAAAAAAAAAAAAAAA",~1900,~2000,binds,–
A(60) RNA unlabeled (ssRNA) RNA: AAAAAAAAAAAAAAAAAAAAAAAAAAAAAAAAAAAAAAAAAAAAAAAAAAAAAAAAAAAA,–,–,–,binds
